Reference: US20190359653A1 (Genentech, published 2019)

T1: hFZD8 CRD-Fc (human, UniProt Q9H461 28-158, limits assumed)
T1 construct: domain: CRD; bought (R&D Systems); not shown: Fc part
T1 sequence (looked up): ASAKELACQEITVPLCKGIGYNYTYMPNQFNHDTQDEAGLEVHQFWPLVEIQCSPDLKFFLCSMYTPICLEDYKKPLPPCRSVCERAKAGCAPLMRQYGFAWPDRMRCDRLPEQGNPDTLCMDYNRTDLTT


Columns and labels:
Assay in all cases: spot phage ELISA
[1] = target: T2, hFZD7 CRD-Fc (human, UniProt O75084 33-185)
[2] = target: T1, hFZD8 CRD-Fc
[3] = target: T2, hFZD7 CRD-Fc; remark: listed apart in the source

| Binder | S/N [1] | S/W [1] | signal:noise ratio [2] | signal:noise ratio [3] |
| --- | --- | --- | --- | --- |
| PPNVHEGCWSMFPW [SEQ ID NO 12] | – | – | 1.3 | 28.1 |
| FCENPYIICW [SEQ ID NO 26] | – | – | 0.8 | 8.6 |
| VAADDLAAWCHVMY [SEQ ID NO 39] | 60.7 | 3.4 | – | – |
| VFVPFSELTSLC [SEQ ID NO 22] | – | – | 1 | 7.8 |
| FWMLLQEGFAFWFP [SEQ ID NO 7] | – | – | 6.4 | 30.5 |
| LPAADLAAWCHVMY [SEQ ID NO 82] | 48 | 3 | – | – |
| LPSDDLEFWCHVMY (also called Fz7-21) [SEQ ID NO 13] | – | – | 1.1 | 24.5 |
| ASELHDWCRMMFPW [SEQ ID NO 10] | – | – | 1.3 | 28.9 |
| ACSYVIDLWNLCLR [SEQ ID NO 9] | – | – | 1.5 | 27.6 |
| GDFWPGSLLWEILV [SEQ ID NO 17] | – | – | 1 | 4.4 |
| LPLFFLSYVL [SEQ ID NO 19] | – | – | 1.1 | 6.3 |
| PQDLLDWCHYMIVSSD [SEQ ID NO 3] | – | – | 1.3 | 29.1 |
| NPPPECFLSK [SEQ ID NO 27] | – | – | 1.1 | 5.2 |
| FELLLDLGDLIRLW [SEQ ID NO 8] | – | – | 2 | 26.9 |
| ISLIEAMIALDRVF (also called Fz7-06) [SEQ ID NO 11] | – | – | 25.8 | 27 |
| DTDLHQWCLWFT [SEQ ID NO 6] | – | – | 9.3 | 30.2 |
| DTDLLQWCLWFT [SEQ ID NO 14] | – | – | 6 | 31.1 |
| FWMQLQDGFAIWFP [SEQ ID NO 15] | – | – | – | 27.8 |
| YEHLHDLMDLIRPW (also called Fz7-07) [SEQ ID NO 1] | – | – | 1.6 | 23.2 |
| ACSYVIDLWNQCLT [SEQ ID NO 4] | – | – | 3.1 | 26.8 |
| ILTFEYFWILGLIL [SEQ ID NO 18] | – | – | 1.1 | 4.5 |
| ERRVCYPWFEVSQP [SEQ ID NO 29] | – | – | 1.2 | 2.6 |
| TYFDDICNLILPWANP [SEQ ID NO 2] | – | – | 1.4 | 27.5 |
| VFFYHSLFFIKLILDP [SEQ ID NO 28] | – | – | 1.3 | 4.7 |
| EHDLLLRAMNSFVLIF [SEQ ID NO 25] | – | – | 1 | 7.6 |
| IWFKGRFVEFSSLV (also called Fz7-17) [SEQ ID NO 23] | – | – | 1 | 7.7 |
| APSDDLEAWCDVMY [SEQ ID NO 75] | 50.2 | 2.7 | – | – |
| SCQMWSNLRVLFLSYW [SEQ ID NO 21] | – | – | 0.7 | 1 |
| FLPDQHSHLFLPWGEP [SEQ ID NO 20] | – | – | 1 | 5.3 |
| NAFWRDQCLEWFIICL [SEQ ID NO 24] | – | – | 1.1 | 5.5 |

Next, values leading:

| S/N [1] | S/W [1] | signal:noise ratio [2] | signal:noise ratio [3] | Binder |
| --- | --- | --- | --- | --- |
| 50.8 | 2.7 | – | – | AAADDLAAWCHVVY [SEQ ID NO 98] |
| 2.1 | 0.1 | – | – | VPSDDLEFWCAVMY [SEQ ID NO 95] |
| 44.5 | 2.3 | – | – | AAADDVASWCHVMY [SEQ ID NO 87] |
| 46.7 | 3.1 | – | – | LPADDLAAWCHVMY [SEQ ID NO 84] |
| 27.4 | 3.1 | – | – | APSDDLAFWCDVMY [SEQ ID NO 91] |
| 40.7 | 3 | – | – | VAADDLAFWCDVMY [SEQ ID NO 88] |
| 48.6 | 2.9 | – | – | LPSADLESWCHVMY [SEQ ID NO 79] |
| 33.8 | 3 | – | – | APADDLAFWCDVMY [SEQ ID NO 90] |
| 51.3 | 3 | – | – | APSDDLAAWCHVMY [SEQ ID NO 73] |
| 36.3 | 1.9 | – | – | APADDLEFWCHAMY [SEQ ID NO 89] |
| 49.2 | 2.9 | – | – | VPADDLASWCDVMY [SEQ ID NO 78] |
| 48.2 | 3.1 | – | – | AAADDLAFWCHVMY [SEQ ID NO 80] |
| 44.9 | 2.9 | – | – | PPADDLAFWCDVMY [SEQ ID NO 85] |
| 53.9 | 2.9 | – | – | APADDLESWCHVMY [SEQ ID NO 96] |
| 45 | 2.5 | – | – | APSDDLAFWCHVVY [SEQ ID NO 97] |
| 8.5 | 2.7 | – | – | AAADDLAFWCDVMY [SEQ ID NO 93] |
| 48.1 | 3 | – | – | LASDDLEFWCHVMY [SEQ ID NO 81] |
| 50.6 | 3.2 | – | – | APADDLAFWCHVVY [SEQ ID NO 74] |
| 49.7 | 3.1 | – | – | AASDDLAFWCHVMY [SEQ ID NO 77] |
| 47.3 | 2.8 | – | – | VPSADLETWCHVMY [SEQ ID NO 83] |
| 23.8 | 2.8 | – | – | LPADDLAFWCDVMY [SEQ ID NO 92] |
| 53.6 | 3.1 | – | – | AAADDLEAWCAVMY [SEQ ID NO 59] |
| 53 | 2.9 | – | – | VPADALAVWCDVMY [SEQ ID NO 66] |
| 54.2 | 3 | – | – | VAADALEFWCHVMY [SEQ ID NO 55] |
| 44.8 | 2.5 | – | – | VASDDLASWCHVVY [SEQ ID NO 86] |
| 53.5 | 3 | – | – | VASDDLASWCHAMY [SEQ ID NO 62] |
| 49.8 | 2.7 | – | – | VPSDDLEAWCDVMY [SEQ ID NO 76] |
| 58.6 | 3.1 | – | – | APSDDVAFWCHVMY [SEQ ID NO 42] |
| 53.5 | 3 | – | – | LAADDLESWCHVMY [SEQ ID NO 60] |
